From patent US20200199204A1

What was measured:
Assay in all cases: cell-based or functional assay
[1] = molecular target: HIV-1 Env of 0260.v5.c36 (HIV-1)
[2] = molecular target: HIV-1 Env of 191821.E6.1 (HIV-1)
[3] = molecular target: HIV-1 Env of 3016.V5.c36 (HIV-1)
[4] = molecular target: HIV-1 Env of 6405.v4.c34 (HIV-1)
[5] = molecular target: HIV-1 Env of 6535.3 (HIV-1)
[6] = molecular target: HIV-1 Env of 96ZM651.02 (HIV-1)
[7] = molecular target: HIV-1 Env of AC10.29 (HIV-1)
[8] = molecular target: HIV-1 Env of BG505.w6m (HIV-1)
[9] = molecular target: HIV-1 Env of C1080.c3 (HIV-1)
[10] = molecular target: HIV-1 Env of CAAN.A2 (HIV-1)
[11] = molecular target: HIV-1 Env of CAP210.E8 (HIV-1)
[12] = molecular target: HIV-1 Env of CAP244.D3 (HIV-1)
[13] = molecular target: HIV-1 Env of CAP256.PI (HIV-1)
[14] = molecular target: HIV-1 Env of CAP256.SU (HIV-1)
[15] = molecular target: HIV-1 Env of CAP45.G3 (HIV-1)
[16] = molecular target: HIV-1 Env of CM244.ec1 (HIV-1)
[17] = molecular target: HIV-1 Env of CNE3 (HIV-1)
[18] = molecular target: HIV-1 Env of DU156.12 (HIV-1)
[19] = molecular target: HIV-1 Env of DU172.17 (HIV-1)
[20] = molecular target: HIV-1 Env of DU422.01 (HIV-1)
[21] = molecular target: HIV-1 Env of KER2008.12 (HIV-1)
[22] = molecular target: HIV-1 Env of KER2018.11 (HIV-1)
[23] = molecular target: HIV-1 Env of MB201 (HIV-1)
[24] = molecular target: HIV-1 Env of MB539.2B7 (HIV-1)
[25] = molecular target: HIV-1 Env of PVO.04 (HIV-1)
[26] = molecular target: HIV-1 Env of Q168.a2 (HIV-1)
[27] = molecular target: HIV-1 Env of Q23.17 (HIV-1)
[28] = molecular target: HIV-1 Env of Q259.d2.17 (HIV-1)
[29] = molecular target: HIV-1 Env of Q461.e2 (HIV-1)
[30] = molecular target: HIV-1 Env of Q769.d22 (HIV-1)
[31] = molecular target: HIV-1 Env of Q842.d12 (HIV-1)
[32] = molecular target: HIV-1 Env of QH0692.42 (HIV-1)
[33] = molecular target: HIV-1 Env of REJO.67 (HIV-1)
[34] = molecular target: HIV-1 Env of RHPA.7 (HIV-1)
[35] = molecular target: HIV-1 Env of RW020.2 (HIV-1)
[36] = molecular target: HIV-1 Env of SC422.8 (HIV-1)
[37] = molecular target: HIV-1 Env of TH976.17 (HIV-1)
[38] = molecular target: HIV-1 Env of THRO.18 (HIV-1)
[39] = molecular target: HIV-1 Env of TRJO.58 (HIV-1)
[40] = molecular target: HIV-1 Env of TRO.11 (HIV-1)
[41] = molecular target: HIV-1 Env of UG037.8 (HIV-1)
[42] = molecular target: HIV-1 Env of WITO.33 (HIV-1)
[43] = molecular target: HIV-1 Env of ZM109.4 (HIV-1)
[44] = molecular target: HIV-1 Env of ZM135.10a (HIV-1)
[45] = molecular target: HIV-1 Env of ZM197.7 (HIV-1)
[46] = molecular target: HIV-1 Env of ZM214.15 (HIV-1)
[47] = molecular target: HIV-1 Env of ZM233.6 (HIV-1)
[48] = molecular target: HIV-1 Env of ZM249.1 (HIV-1)
[49] = molecular target: HIV-1 Env of ZM53.12 (HIV-1)

CAP256-VRC26.21 (antibody)
IC50 [1]: > 50 µg/mL
IC50 [2]: > 50 µg/mL
IC50 [3]: > 50 µg/mL
IC50 [4]: > 50 µg/mL
IC50 [5]: > 50 µg/mL
IC50 [6]: > 50 µg/mL
IC50 [7]: > 50 µg/mL
IC50 [8]: > 50 µg/mL
IC50 [9]: > 50 µg/mL
IC50 [10]: > 50 µg/mL
IC50 [11]: 0.005 µg/mL
IC50 [12]: > 50 µg/mL
IC50 [13]: > 50 µg/mL
IC50 [14]: 0.002 µg/mL
IC50 [15]: > 50 µg/mL
IC50 [16]: > 50 µg/mL
IC50 (neutralization, TZM-bl) [17]: > 50 µg/mL
IC50 [18]: > 50 µg/mL
IC50 [19]: > 50 µg/mL
IC50 [20]: 1.1 µg/mL
IC50 [21]: > 50 µg/mL
IC50 [22]: 0.06 µg/mL
IC50 [23]: > 50 µg/mL
IC50 [24]: > 50 µg/mL
IC50 [25]: > 50 µg/mL
IC50 [26]: > 50 µg/mL
IC50 [27]: > 50 µg/mL
IC50 [28]: 25.4 µg/mL
IC50 [29]: > 50 µg/mL
IC50 [30]: > 50 µg/mL
IC50 [31]: > 50 µg/mL
IC50 [32]: > 50 µg/mL
IC50 [33]: > 50 µg/mL
IC50 [34]: > 50 µg/mL
IC50 [35]: > 50 µg/mL
IC50 [36]: > 50 µg/mL
IC50 (neutralization, TZM-bl) [37]: > 50 µg/mL
IC50 [38]: > 50 µg/mL
IC50 [39]: > 50 µg/mL
IC50 [40]: > 50 µg/mL
IC50 [41]: > 50 µg/mL
IC50 [42]: > 50 µg/mL
IC50 [43]: > 50 µg/mL
IC50 [44]: > 50 µg/mL
IC50 [45]: > 50 µg/mL
IC50 [46]: > 50 µg/mL
IC50 [47]: 26.5 µg/mL
IC50 [48]: > 50 µg/mL
IC50 [49]: 0.003 µg/mL

CAP256-VRC26.14 (antibody)
IC50 [1]: > 50 µg/mL
IC50 [2]: 3.36 µg/mL
IC50 [3]: 0.012 µg/mL
IC50 [4]: > 50 µg/mL
IC50 [5]: > 50 µg/mL
IC50 [6]: > 50 µg/mL
IC50 [7]: > 50 µg/mL
IC50 [8]: 0.75 µg/mL
IC50 [9]: 0.779 µg/mL
IC50 [10]: > 50 µg/mL
IC50 [11]: 0.012 µg/mL
IC50 [12]: > 50 µg/mL
IC50 [13]: > 50 µg/mL
IC50 [14]: 0.004 µg/mL
IC50 [15]: > 50 µg/mL
IC50 [16]: 6.16 µg/mL
IC50 [17]: > 50 µg/mL
IC50 [18]: > 50 µg/mL
IC50 [19]: > 50 µg/mL
IC50 [20]: 49 µg/mL
IC50 [21]: > 50 µg/mL
IC50 [22]: 0.03 µg/mL
IC50 [23]: > 50 µg/mL
IC50 [24]: > 50 µg/mL
IC50 [25]: > 50 µg/mL
IC50 [26]: > 50 µg/mL
IC50 [27]: > 50 µg/mL
IC50 [28]: 2.13 µg/mL
IC50 [29]: > 50 µg/mL
IC50 [30]: > 50 µg/mL
IC50 [31]: > 50 µg/mL
IC50 [32]: > 50 µg/mL
IC50 [33]: > 50 µg/mL
IC50 [34]: > 50 µg/mL
IC50 [35]: > 50 µg/mL
IC50 [36]: > 50 µg/mL
IC50 [37]: > 50 µg/mL
IC50 [38]: > 50 µg/mL
IC50 [39]: > 50 µg/mL
IC50 [40]: > 50 µg/mL
IC50 [41]: > 50 µg/mL
IC50 [42]: > 50 µg/mL
IC50 [43]: > 50 µg/mL
IC50 [44]: > 50 µg/mL
IC50 [45]: 4.96 µg/mL
IC50 [46]: > 50 µg/mL
IC50 [47]: 0.028 µg/mL
IC50 [48]: > 50 µg/mL
IC50 [49]: 0.006 µg/mL

CAP256-VRC26.15 (antibody)
IC50 [1]: > 50 µg/mL
IC50 [2]: > 50 µg/mL
IC50 [3]: 0.16 µg/mL
IC50 [4]: > 50 µg/mL
IC50 [5]: > 50 µg/mL
IC50 [6]: > 50 µg/mL
IC50 [7]: > 50 µg/mL
IC50 [8]: 11.7 µg/mL
IC50 [9]: > 50 µg/mL
IC50 [10]: > 50 µg/mL
IC50 [11]: 0.019 µg/mL
IC50 [12]: > 50 µg/mL
IC50 [13]: > 50 µg/mL
IC50 [14]: 0.008 µg/mL
IC50 [15]: > 50 µg/mL
IC50 [16]: 0.112 µg/mL
IC50 [17]: > 50 µg/mL
IC50 [18]: 10.4 µg/mL
IC50 [19]: > 50 µg/mL
IC50 [20]: 0.153 µg/mL
IC50 [21]: > 50 µg/mL
IC50 [22]: 0.04 µg/mL
IC50 [23]: > 50 µg/mL
IC50 [24]: > 50 µg/mL
IC50 [25]: 30 µg/mL
IC50 [26]: > 50 µg/mL
IC50 [27]: 0.338 µg/mL
IC50 [28]: 0.657 µg/mL
IC50 [29]: 19.9 µg/mL
IC50 [30]: > 50 µg/mL
IC50 [31]: 9.35 µg/mL
IC50 [32]: > 50 µg/mL
IC50 [33]: > 50 µg/mL
IC50 [34]: > 50 µg/mL
IC50 [35]: > 50 µg/mL
IC50 [36]: > 50 µg/mL
IC50 [37]: > 50 µg/mL
IC50 [38]: > 50 µg/mL
IC50 [39]: > 50 µg/mL
IC50 [40]: > 50 µg/mL
IC50 [41]: > 50 µg/mL
IC50 [42]: > 50 µg/mL
IC50 [43]: > 50 µg/mL
IC50 [44]: > 50 µg/mL
IC50 [45]: 14.6 µg/mL
IC50 [46]: > 50 µg/mL
IC50 [47]: 0.192 µg/mL
IC50 [48]: > 50 µg/mL
IC50 [49]: 0.014 µg/mL
